Source: patent publication US20090275083A1

Key:
[1] = target: T1, Fusarium oxysporum lipase (FoL) variant [change] (Fusarium oxysporum); experiment: cell-based or functional assay
T1 chain: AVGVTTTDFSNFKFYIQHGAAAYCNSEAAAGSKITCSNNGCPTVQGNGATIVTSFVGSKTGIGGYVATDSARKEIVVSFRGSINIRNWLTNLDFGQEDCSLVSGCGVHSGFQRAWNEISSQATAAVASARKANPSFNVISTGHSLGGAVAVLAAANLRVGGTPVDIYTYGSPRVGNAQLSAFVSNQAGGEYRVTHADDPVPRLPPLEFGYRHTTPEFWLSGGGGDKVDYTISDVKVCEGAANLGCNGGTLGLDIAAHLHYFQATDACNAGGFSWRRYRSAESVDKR

[2] = target: T2, Fusarium oxysporum lipase (FoL), wild type (Fusarium oxysporum); experiment: cell-based or functional assay
T2 chain: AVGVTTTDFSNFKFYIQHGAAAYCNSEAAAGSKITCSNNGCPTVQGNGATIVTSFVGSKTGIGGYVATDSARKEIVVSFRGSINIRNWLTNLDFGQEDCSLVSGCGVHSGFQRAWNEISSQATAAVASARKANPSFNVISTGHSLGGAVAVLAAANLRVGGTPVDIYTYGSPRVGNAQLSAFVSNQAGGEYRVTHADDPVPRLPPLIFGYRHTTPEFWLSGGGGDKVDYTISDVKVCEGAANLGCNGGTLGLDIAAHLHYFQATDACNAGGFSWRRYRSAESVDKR

B1: Peptide P0 (wildtype FoL C-terminal peptide) (peptide)
peptide: ATMTDAELEKKLNSYVQMDKEYVKNNQARS
modifications: not checked
Question: B1 was tested. Which IC50 (half maximal inhibitory concentration; p-NP butyrate hydrolysis) (peptide/lipase ratio) [1] did it give?
Answer: 287

Question: And the IC50 (half maximal inhibitory concentration; p-NP butyrate hydrolysis) (peptide/lipase ratio) [2]?
Answer: 913
